Source: article PMC7968997

Tests used:
[1] = molecular target: T1, RBM45 RRM1-2 WT (Homo sapiens, UniProt Q8IUH3 23-202); experiment: crystal structure
T1 sequence: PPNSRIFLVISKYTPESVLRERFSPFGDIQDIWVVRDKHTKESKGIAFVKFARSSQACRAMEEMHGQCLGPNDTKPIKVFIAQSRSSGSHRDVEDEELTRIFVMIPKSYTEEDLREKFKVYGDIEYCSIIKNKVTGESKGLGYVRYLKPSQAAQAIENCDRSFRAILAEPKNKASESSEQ

[2] = molecular target: T1, RBM45 RRM1-2 WT; experiment: gel filtration, SEC-MALS
[3] = molecular target: T2, RBM45 RRM1-2 F29A/F70A (RRM2 analog) (Homo sapiens, UniProt Q8IUH3 23-202, F29A;F70A); experiment: fluorescence polarization
T2 sequence: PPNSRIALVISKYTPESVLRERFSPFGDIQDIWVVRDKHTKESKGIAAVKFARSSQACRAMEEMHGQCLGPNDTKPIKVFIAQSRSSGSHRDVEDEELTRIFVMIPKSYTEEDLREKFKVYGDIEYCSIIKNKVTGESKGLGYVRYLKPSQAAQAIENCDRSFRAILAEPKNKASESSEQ

[4] = molecular target: T1, RBM45 RRM1-2 WT; experiment: fluorescence polarization
[5] = molecular target: T3, RBM45 RRM1-2 F124A/Y165A (RRM1 analog) (Homo sapiens, UniProt Q8IUH3 23-202, F124A;Y165A); experiment: fluorescence polarization
T3 sequence: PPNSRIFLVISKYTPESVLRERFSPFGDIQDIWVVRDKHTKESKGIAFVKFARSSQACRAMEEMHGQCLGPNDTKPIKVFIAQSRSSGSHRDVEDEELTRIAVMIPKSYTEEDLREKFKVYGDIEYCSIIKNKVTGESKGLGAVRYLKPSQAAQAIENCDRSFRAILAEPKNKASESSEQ

[6] = molecular target: T1, RBM45 RRM1-2 WT; experiment: gel filtration, SEC-MALS; remark: listed apart in the source
[7] = molecular target: T1, RBM45 RRM1-2 WT; experiment: gel filtration, SEC-MALS; remark: listed apart in the source
[8] = molecular target: T2, RBM45 RRM1-2 F29A/F70A (RRM2 analog); experiment: fluorescence polarization; remark: listed apart in the source
[9] = molecular target: T1, RBM45 RRM1-2 WT; experiment: fluorescence polarization; remark: listed apart in the source
[10] = molecular target: T3, RBM45 RRM1-2 F124A/Y165A (RRM1 analog); experiment: fluorescence polarization; remark: listed apart in the source
[11] = molecular target: T1, RBM45 RRM1-2 WT; experiment: gel filtration, SEC-MALS; remark: listed apart in the source
[12] = molecular target: T1, RBM45 RRM1-2 WT; experiment: gel filtration
[13] = molecular target: T1, RBM45 RRM1-2 WT; experiment: gel filtration, SEC-MALS; remark: listed apart in the source
[14] = molecular target: T1, RBM45 RRM1-2 WT; experiment: gel filtration, SEC-MALS; remark: listed apart in the source
[15] = molecular target: T1, RBM45 RRM1-2 WT; experiment: gel filtration, SEC-MALS; remark: listed apart in the source
[16] = molecular target: T1, RBM45 RRM1-2 WT; experiment: gel filtration, SEC-MALS; remark: listed apart in the source

B1: 11-nt ssDNA (ssDNA)
DNA: CGACGGGACGC
- binding result [1]: binds

B2: 12-mer 2-GAC RNA (ssRNA)
RNA: CGACGGGGACGC
- binding result [2]: binds

B3: GG(m6A)CGG RNA (ssRNA)
RNA: GGACGG
modifications: m6A at position 3
- binding result [3]: binds
- binding result [4]: binds
- binding result [5]: binds

B4: 18-mer 2-GAC RNA (ssRNA)
RNA: CGACGGUUUUUUGGACGC
- binding result [6]: binds

B5: 22-mer 2-GAC RNA (ssRNA)
RNA: CGACGGUUUUUUUUUUGGACGC
- binding result [7]: binds

B6: GGACGG ssDNA (ssDNA)
DNA: GGACGG
- Kd [8]: 2310 ± 190 nM
- Kd [9]: 805 ± 108 nM
- Kd [10]: 1210 ± 90 nM

B7: 20-mer 2-GAC RNA (ssRNA)
RNA: CGACGGUUUUUUUUGGACGC
- binding result [11]: binds

B8: 9-mer 2-GAC RNA (ssRNA)
RNA: CGACGACGC
- binding result [12]: binds

B9: 14-mer 2-GAC RNA (ssRNA)
RNA: CGACGGUUGGACGC
- binding result [13]: binds

B10: 11-mer 2-GAC RNA (ssRNA)
RNA: CGACGGGACGC
- binding result [14]: binds

B11: 12-mer GAC-polyU RNA (ssRNA)
RNA: CGACGGUUUUUU
- binding result [15]: binds

B12: polyU 6-mer RNA (ssRNA)
RNA: UUUUUU
- Kd [9]: 57200 ± 10200 nM

B13: 26-mer 2-GAC RNA (ssRNA)
RNA: CGACGGUUUUUUUUUUUUUUGGACGC
- binding result [16]: binds

B14: 16-mer 2-GAC RNA (ssRNA)
RNA: CGACGGUUUUGGACGC
- binding result [13]: binds

B15: 10-mer 2-GAC RNA (ssRNA)
RNA: CGACGGACGC
- binding result [12]: binds
